# The nanobody polyreactivity screen of Harvey et al. (2022)
# Test: yeast display, Sf9 membrane polyspecificity reagent, FACS + sequencing; frameworks hold sequencing errors
# Summary of the method: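 Using colony PCR, genes from sorted yeast display clones were amplified, then sequenced on MiSeq at 2 × 250 and filtered by CDR length. The clones had been stained with 10% biotinylated, detergent-solubilized Sf9 membrane reagent for 1 hour at 4 °C and sorted by FACS into low and high (top ~1%) gates on anti-HA and streptavidin fluorescence. Polyreactivity labels come from the gate of origin.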
row,Sequence,polyreactivity (PSR sort gate)
1,QVQLVESGGGLVQAGGSLRLSCAASGSTFVYNDMGWNRQAPGKEREFVAAITYSGSTYYADSVKGRFTISRDNAKNTVYLQMNSLKPEDTAVYYCAAEYVWRFEYWGQGTQVTVSS,low polyreactivity
2,QVQLVESGGGLVQAGGSLRLSCAASGSTFVYNTMGWSRQAPGKERELVADITWRGASTYYADSVKGRFTISRDNAKNTVYLQMNSLKPEDTAVYYCAADYYSATGSYAYDYWGQGTQVTVSS,low polyreactivity
3,QVQLVESGGGLVQAGGSLRLSCAASGSTFVYNVMGWYRQAPGKERELVAAITSGVRTYYADSVKGRFTISRDNAMNTVYLQMNSLKPEDTAVYYCATGLRYAKYYYWGQGTQVTVSS,high polyreactivity
4,QVQLVESGGGLVQAGGSLRLSCAASGSTFVYYAMGLYRQAPGKERELVAAITASGGGTYYADSVKGRFTISRDNAKNPVYLQMNSLKPEVTAVYYCNRGYDYWGQGTQVTVSS,low polyreactivity
5,QVQLVESGGGLVQAGGSLRLSCAASGSTFVYYAMGWYRQAPGKEREFVAAISYSGGNTYYADSVKGRFTISRDNAMNTVYLQMNSLKPEDTAVYYCAAYYYYFYHKVIWYELDYWGQGTQVTVSS,low polyreactivity
6,QVQLVESGGGLVQAGGSLRLSCAASGSTFVYYAMGWYRQAPGKERELVAAINYSSGSTYYADSVKGRFTISRDNAKNTVYLQMNSLKPEDTAVYYCATDLLYYQYYSDYDYWGQGTQVTVSS,high polyreactivity
7,QVQLVESGGGLVQAGGSLRLSCAASGSTFVYYAMGWYRQAPGKERELVAAISSSGGTTYYAVSEKGRFTISRDYGKNTGYLLMNSLKPEDTAVYFCAAPYASRGYEYWGQGTQVTVSS,high polyreactivity
8,QVQLVESGGGLVQAGGSLRLSCAASGSTFVYYAMGWYRQAPGKERELVAAISWSGTRTYYADSVKGRFTISRDNAKNTVYLQMNSLKPEDTAVYYCAARLRANQVKLYYWGQGTQVTVSS,high polyreactivity
9,QVQLVESGGGLVQAGGSLRLSCAASGSTFVYYAMGWYRQAPGKERELVAAITASGGRTYYADSVKGRFTISRDNAKNTVYLQMNSLKPEDTAVYYCNTVRPHGMDYWGQGTQVTVSS,high polyreactivity
10,QVQLVESGGGLVQAGGSLRLSCAASGSTFVYYTMGCYRPAPGKETELVAAINGSGGSTYYADSVKRRFTISRDNAKNTVYLQMNSLKPEDTAVYYCDAVYWDGDDYWGQGTQVTVSS,high polyreactivity
11,QVQLVESGGGLVQAGGSLRLSCAASGSTFWANAMGWYRPAPGKERELVAGITWNAGSTYYADSVKGRFTISRDNAKNTVYLQMNSLKPEDTAVYYCAAYYHFQGWGPGYNSWGQGTQVTVSS,low polyreactivity
12,QVQLVESGGGLVQAGGSLRLSCAASGSTFWAYVMGWYRQAPGKERELVASISSGGSTNYADSVKGRFTISRDNAKNTVYLQMNSLKPEDTAVYYCAKRPYPYKYDYWGQGTQVTVSS,high polyreactivity
13,QVQLVESGGGLVQAGGSLRLSCAASGSTFWDYAMGWYRQAPGKERELVAAINSGDSTNYADSVKGRFTISRDNAKNTVYFQMNSLKPEDTAVYYCNVDWYDKGYGGYDYWGQGTQVTVSS,low polyreactivity
14,QVQLVESGGGLVQAGGSLRLSCAASGSTFWFNDMGWYRQAPGKEREFVAAISSIGGSTYYADSVKGRFTISRDNAKNTVYLQMNSLKPEDTAVYNCAVEVVRVYRYDYWGQGTQVTVSS,low polyreactivity
15,QVQLVESGGGLVQAGGSLRLSCAASGSTFWFYALGWYRQAPGKERELVAAISSSGTTTYYADSVKGRFTISRDNAKNTVYLQINSLKPEDTAVSYCAAQYRGSYRTTYDYWGQCTQVTVSS,low polyreactivity
16,QVQLVESGGGLVQAGGSLRLSCAASGSTFWGNAMGWYRPAPGKERELVAAISNGGSTNYADSVKGRFTISRDNAKNTVNLQMNSLKPEDTAVYYCAADGHTSNGVSLHGYWGQGTQVTVSS,low polyreactivity
17,QVQLVESGGGLVQAGGSLRLSCAASGSTFWGNAMGWYRQAPGKERELVAAIDWSGGRTYYADSVKGRFTISRDNAKNTVYLQMNSLKPEDTAVYYCATRAWRGYVPYDYWGQGTQVTVSS,high polyreactivity
18,QVQLVESGGGLVQAGGSLRLSCAASGSTFWGYAMGWYRQAPGKERELVAAINWIGGSDTFYADSVKGRFTISRDNAKNTVYLQMNSLKPEDTAVYYCAATYYNLPYSWGYDYWGQGTQVTVSS,low polyreactivity
19,QVQLVESGGGLVQAGGSLRLSCAASGSTFWGYAMGWYRQAPGKERELVATINQSAGSTYYADSVKGRFTISRDYAKNTVYLQMNSLKPEDTAVYYCAAEARVQFSYDYWGQGTQVTVSS,low polyreactivity
20,QVQLVESGGGLVQAGGSLRLSCAASGSTFWINAMGWYRPAPGKEREFVAAIRWNGGSTNYADSVKGRFTHSRDNAKNTVYLPMNSLKPEDTAVYYCAADGYIGWRHIYEYWGQGTQVTVSS,low polyreactivity
21,QVQLVESGGGLVQAGGSLRLSCAASGSTFWKYAMGWYRQAPGKEREFVAAITRSGGNTYYADSVKGRFTISRDNAKNTVYLQMNSLKPEDTALYYCAIVYKLITSYRGFGYWGQGTQVTVSS,high polyreactivity

row,Sequence,polyreactivity (PSR sort gate)
1,QVQLVESGGGLVQAGGSLRLSCAASGSTFWKYVMGWYRPAPGKERELVAAITSRGGSTYADSVKGRFTISRDNAKNTVYLLMNSLKPEDTAVYYCAATKFWYYGYDYWGQGTQVTVSS,low polyreactivity
2,QVQLVESGGGLVQAGGSLRLSCAASGSTFWLNAMGWYRQAPGKERELVAAITGLGGSTYYADSVKGRFTISRDTAKNTVYLQMNSLKPEDTAVYYCAAGAYRRNKSDYYYWGQGTEVTVSS,low polyreactivity
3,QVQLVESGGGLVQAGGSLRLSCAASGSTFWLYAMGWYRPAPGKERELVASISSRGGSTYYADSVKGRFTISRDYAKNTVYLQMNSLKPEDTAVYYCAAKDIRYDDDYWGQGTQVTVSS,low polyreactivity
4,QVQLVESGGGLVQAGGSLRLSCAASGSTFWNAMGWYRPGPGKERELVAAIRLSGGSTYYADSVKGRFTISRDNAKNTVYLQMNSLKPEDTAVYYCNADVTFGYWEYDYWGQGTQVTVSS,low polyreactivity
5,QVQLVESGGGLVQAGGSLRLSCAASGSTFWPNAMGWYRQAPGKERELVAGITTSSGSTFYADSVKGRFTISRDNAKNTVYLQMNSLKPADTAVYYCNARVRRRRYKYDYWGQGTQVTVSS,high polyreactivity
6,QVQLVESGGGLVQAGGSLRLSCAASGSTFWPYAMGWFRQAPGTERELVAAITWSGGRTYYADSVKGRFTLSRDNAKNTVYLQMNSLKPEDTAVYYCAAYYRQGIAPNGFDYWGQGTQVTVSS,high polyreactivity
7,QVQLVESGGGLVQAGGSLRLSCAASGSTFWPYAMGWYRPAPGKERELVAAITNSGGSTYYADSVKGRFTISRDNAKYTVYLQMNSLKPEDTAVYYCAVRGVIYSYTPVNTYDYWGQGTQVTVSS,low polyreactivity
8,QVQLVESGGGLVQAGGSLRLSCAASGSTFWQYAMGWYRQAPGKERELVAAISYSGGSTYYADSVKGRFTISRDNAKNTVYLQMNSLKPEDTAVYYCAKEYNVGFYLVFNRFDYWGQGTQVTVSS,low polyreactivity
9,QVQLVESGGGLVQAGGSLRLSCAASGSTFWRYAMGWYRQAPGKERELVAGITWNGGSTYYADSVKGRFTISRDNAKNTVYLQMNSLKPEDTAVYYCAARRTWGYIYRLGYGMDYWGQGTQVTVSS,high polyreactivity
10,QVQLVESGGGLVQAGGSLRLSCAASGSTFWSNAMGWYRQAPGKERELVAAISISDGNTYYADSVKVRFTISRDNAKNTVYLQMNSLKPEDTAVYYCATVGSEDGDPGFDYWGQGTQVTVSS,low polyreactivity
11,QVQLVESGGGLVQAGGSLRLSCAASGSTFWSYAMGWYRQAPGKEREFVAAISSSDDSTYYADSVKGRFTISRDNAKNTVYLQMNSLKPEDTAVYYCATSWYIYPYDYWGQGTQVTVSS,low polyreactivity
12,QVQLVESGGGLVQAGGSLRLSCAASGSTFWSYAMGWYTQAPGKERELVAVITGSDGRTFYADSVKGRFTISRDNAKNTVYLQMNSLKPEDTAVYYCAADAVFRATRYDRSTSEDDYWGQGTQVTVSS,low polyreactivity
13,QVQLVESGGGLVQAGGSLRLSCAASGSTFWVNTMGWYRQAPGKERELVAAISSNGGSTYYADSVKGRFTISRDNAKNTVYLQMNSLKPEDTAVYYCATRQSWSDYYLNVDYDYRGQGTQVTVSS,low polyreactivity
14,QVQLVESGGGLVQAGGSLRLSCAASGSTFWVYTMGWYRQAPGKERALVAAINYSDGSTYYADSVKGRFTISRENAKNTVYLQMNSLKPEDTAVYYCAAGSDPTGRRYEYWGQGTQVTVSS,low polyreactivity
15,QVQLVESGGGLVQAGGSLRLSCAASGSTFWVYTMGWYRQAPGKERELVAAINYSDGSTYYADSVKGRFTISRDNAKNTVYLQMNRLKPEDTAVYYCAAGSDPTGRRYDYWGQGTQVTVSS,low polyreactivity
16,QVQLVESGGGLVQAGGSLRLSCAASGSTFWWYAMGWYRQAPGKERELVADITTGGSTNYADSVKGRFTISRDNAKNTVYLQMNSLKPEDTAVYYCNADGVTPYTWRLRYFKYHFDYWGQGTQVTVSS,low polyreactivity
17,QVQLVESGGGLVQAGGSLRLSCAASGSTFWYNAMGWYRQAPGKERELVARISYSGGSTYYADSVKGRFTISRDNAKNTVYLQMNSLKPEDTAVYYCAARRPYKYDYWGQGTQVTVSS,high polyreactivity
18,QVQLVESGGGLVQAGGSLRLSCAASGSTFWYYAMGWFRQAPGKERELVAAITRGASTNYADSVKGRFTISRDNAKNTVYLQMNSLKPEDTAVYYCAAGPARWKGYYWGQGTQVTVSS,high polyreactivity
19,QVQLVESGGGLVQAGGSLRLSCAASGSTFWYYAMGWYRPAPGKERELVAAITISGGSTYYADSVKGRFTISRDNAKNTVYLQMNSLKPEDTAVYYCATDDTHRVGWFDYWGQGTQVTVSS,low polyreactivity
20,QVQLVESGGGLVQAGGSLRLSCAASGSTFWYYAMGWYRQAPGKERELVAAIRWSDGSTYYADSVKGRFTISRDNAKNTVYLQMNSLKPEDTAVYYCEYYYWGQGTQVTVSS,low polyreactivity
